T1: human lymphotoxin (TNFβ) (human) (UniProt P01374)
T1 sequence (looked up): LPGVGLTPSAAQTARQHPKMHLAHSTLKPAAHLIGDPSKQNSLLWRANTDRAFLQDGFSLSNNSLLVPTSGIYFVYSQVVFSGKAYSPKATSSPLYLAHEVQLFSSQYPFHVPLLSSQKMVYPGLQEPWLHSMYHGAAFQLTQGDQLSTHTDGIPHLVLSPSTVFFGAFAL

B1: chimeric mouse/human IgG1 anti-platelet mAb (7E3) (antibody, INN chains, looked up, V domains shown)
VH: EVQLQQSGTVLARPGASVKMSCEASGYTFTNYWMHWVKQRPGQGLEWIGAIYPGNSDTSYIQKFKGKAKLTAVTSTTSVYMELSSLTNEDSAVYYCTLYDGYYVFAYWGQGTLVTVSA
VL: EIVLTQSPVTLSVTPGDSVSLSCRASRDISNNLHWFQQTSHESPRLLIKYASQSMSGIPSRFSGSGSGTDFTLSINSVETEDFGMYFCQQTNSWPYTFGGGTKLEIK
modifications: chimeric IgG1

Legend:
[1] = target: T1, human lymphotoxin (TNFβ) (human); assay: cell-based or functional assay
[2] = target: human tumor necrosis factor-alpha (hTNFα) (human) (UniProt P01375); assay: cell-based or functional assay
Sequence of human tumor necrosis factor-alpha (hTNFα) (human) (P01375 77-233): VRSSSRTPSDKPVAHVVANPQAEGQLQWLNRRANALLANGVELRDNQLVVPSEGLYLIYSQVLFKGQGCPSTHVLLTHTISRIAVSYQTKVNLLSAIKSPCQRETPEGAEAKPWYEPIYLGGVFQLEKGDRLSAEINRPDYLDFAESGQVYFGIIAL

Molecule	amount needed for the same inhibition of human TNFβ, against p75P-sf2 [1]	IL-6 secreted by FS-4 fibroblasts, 0.3 ng/ml rhTNF with 4 µg/ml antibody (no antibody: 1.36) [2]	IL-6 secreted by FS-4 fibroblasts, 1.5 ng/ml rhTNF with 4 µg/ml antibody (no antibody: 2.00) [2]	IL-6 secreted by FS-4 fibroblasts, 7.5 ng/ml rhTNF with 4 µg/ml antibody (no antibody: 2.56) [2]
p55-sf2 (p55 TNF receptor/IgG1 heavy chain single fusion with truncated light chain JCK) (from UniProt P19438 3-159) (Fc fusion)	3 fold	–	–	–
p75-sf2 (complete extracellular domain of p75 fused to the IgG1 heavy chain) (from UniProt P20333 23-257) (Fc fusion)	3 fold	–	–	–
B1	–	1.6 ng/mL	1.96 ng/mL	2.16 ng/mL
